According to patent US20220363757A1 (SYMPHOGEN A S, published 2022):
Substitutions are numbered along the chain they refer to.

T1: human LAG-3 ECD human IgG1 Fc fusion (human, UniProt P18627 23-450)
T1 construct: not shown: human IgG1 Fc, AA P101-K330
T1 sequence: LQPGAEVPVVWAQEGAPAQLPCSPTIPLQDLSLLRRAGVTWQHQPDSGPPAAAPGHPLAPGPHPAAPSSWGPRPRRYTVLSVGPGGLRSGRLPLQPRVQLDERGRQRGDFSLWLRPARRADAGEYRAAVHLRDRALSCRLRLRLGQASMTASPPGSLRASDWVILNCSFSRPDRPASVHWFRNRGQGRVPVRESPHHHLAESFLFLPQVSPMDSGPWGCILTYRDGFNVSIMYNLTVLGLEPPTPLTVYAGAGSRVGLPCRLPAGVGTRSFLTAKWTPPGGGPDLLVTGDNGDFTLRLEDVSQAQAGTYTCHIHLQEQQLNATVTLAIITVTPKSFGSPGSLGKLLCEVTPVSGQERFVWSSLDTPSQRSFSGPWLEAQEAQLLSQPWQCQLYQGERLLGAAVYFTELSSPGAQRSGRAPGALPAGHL

T2: human LAG-3 domain 1-2 Fc fusion, point mutation #55 S111A (human, UniProt P18627 23-266)
T2 construct: not shown: human IgG1 Fc, AA P101-K330
T2 sequence: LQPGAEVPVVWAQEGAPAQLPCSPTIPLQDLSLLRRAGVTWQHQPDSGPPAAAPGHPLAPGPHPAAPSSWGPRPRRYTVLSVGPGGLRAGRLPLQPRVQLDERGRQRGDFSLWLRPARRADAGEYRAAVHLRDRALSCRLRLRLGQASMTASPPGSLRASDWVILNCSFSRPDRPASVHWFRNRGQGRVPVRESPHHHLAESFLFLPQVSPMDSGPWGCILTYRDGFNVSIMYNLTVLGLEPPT

T3: human LAG-3 domain 1-2 Fc fusion, point mutation #73 R137A (human, UniProt P18627 23-266)
T3 construct: not shown: human IgG1 Fc, AA P101-K330
T3 sequence: T2 sequence with A89S, R115A

T4: human LAG-3 domain 1-2 Fc fusion, point mutation #79 S159A (human, UniProt P18627 23-266)
T4 construct: not shown: human IgG1 Fc, AA P101-K330
T4 sequence: T2 sequence with A89S, S137A

T5: human LAG-3 domain 1-2 Fc fusion, point mutation #6 T47A (human, UniProt P18627 23-266)
T5 construct: not shown: human IgG1 Fc, AA P101-K330
T5 sequence: T2 sequence with T25A, A89S

T6: human LAG-3 domain 1-2 Fc fusion, point mutation #11 L56A (human, UniProt P18627 23-266)
T6 construct: not shown: human IgG1 Fc, AA P101-K330
T6 sequence: T2 sequence with L34A, A89S

T7: human LAG-3 domain 1-2 Fc fusion, point mutation #16 H65A (human, UniProt P18627 23-266)
T7 construct: not shown: human IgG1 Fc, AA P101-K330
T7 sequence: T2 sequence with H43A, A89S

T8: human LAG-3 domain 1-2 Fc fusion, point mutation #39 W92A (human, UniProt P18627 23-266)
T8 construct: not shown: human IgG1 Fc, AA P101-K330
T8 sequence: T2 sequence with W70A, A89S

B1: Fab fragment of antibody 15572 (Fab, V domains shown, not shown: a dimerising Fc or GST)
VH: QLQLQESGPGLVKPSETLSLTCTVSGDSISSSSYYWGWIRQPPGKGLEWIGSIFYSGNTYYNPSLKSRVTISVDTSKNQFSLKLSSVTAADTAVYYCAREDDFLTDYYGAFDIWGQGTMVTVSS
VL: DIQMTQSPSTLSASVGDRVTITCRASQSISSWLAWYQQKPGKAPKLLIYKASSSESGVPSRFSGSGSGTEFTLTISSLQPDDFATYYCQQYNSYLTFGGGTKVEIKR
notes: monomeric Fab made by GingisKHAN digestion of the IgG1
B2: Fab fragment of antibody 15532 (Fab, V domains shown, not shown: a dimerising Fc or GST)
VH: QVQLQQWGAGLLRPSETLSLTCAVYGESFSGYYWNWIRQPPGKGLEWIGEINHSGSTNYNPSLKSRVTISVDTSKTQFSLKLSSVTAADTAVYYCARGWDLLDWNDYWNEYWGQGTLVTVSS
VL: EIVLTQSPATLSLSPGERATLSCRASQSVSSYLAWYQQKPGQAPRLLIYDASNRATGIPARFSGSGSGTDFTLTISSLEPEDFAVYYCQQRSNWPLTFGGGTKVEIKR
notes: as for B1
B3: Fab fragment of antibody 15431 (Fab, V domains shown, not shown: a dimerising Fc or GST)
VH: QVQLQQSGPGLVKPSQTLSLTCAISGDSVSSNSAAWNWIRQSPSRGLEWLGRTYYRSKWYNDYAVSVKSRITINPDTSKNQFSLQLNSVTPEDTAVYYCARDDDWNDFDYWGQGTLVTVSS
VL: B2 VL
notes: as for B1
B4: Fab fragment of antibody 15011 (Fab, V domains shown, not shown: a dimerising Fc or GST)
VH: EVQLLESGGGLVQPGGSLRLSCAASGFDFRSYAMMWVRQAPGKGLEWVGGINGEVGGSNTYYAPAVKGRATISRDNSKNTLYLQMNSLRAEDTAVYYCVKGAGACGICNDDIDAWGQGTLVTVSS
VL: SYELTQDPAVSVALGQTVRITCSGAGSYAGSYYYGWHQQKPGQAPVTVIYDNDKRPSNIPDRFSGSSSGNTASLTITGAQAEDEADYYCGSTNDNDDGGLFGSGTKVTVLG
notes: as for B1

How the values were obtained:
[1] = target: T1, human LAG-3 ECD human IgG1 Fc fusion; assay: SPR, Fab over captured LAG-3 ECD-Fc
Procedure: Antigens were purified using standard procedures and captured onto an G-a-hu-IgG Fc SensEye® (Ssens BV, The Netherlands) for 15 minutes using a Continuous Flow Microspotter (CFM, Wasatch Microfluidics, Salt Lake City, US). After spotting, the SensEye® was positioned in the IBIS MX96 biosensor and remaining capture sites blocked. […] Fab association was performed for 15 minutes and antigen dissociation was performed for 15 minutes. The recorded binding responses were fitted to a simple Langmuir 1:1 binding model with Scrubber 2 software for calculation of the on-rate (kon or ka), off-rate (koff or kd) and affinity (KL) constants.

[2] = target: T2, human LAG-3 domain 1-2 Fc fusion, point …; assay: SPR, Fab over captured mutant LAG-3-Fc;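 also: fc fusion variants captured on anti-human IgG Fc sensor, Fab injected with association then dissociation phases, KD obtained from Langmuir one-to-one fit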
[3] = target: T3, human LAG-3 domain 1-2 Fc fusion, point …; assay: SPR, Fab over captured mutant LAG-3-Fc;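 also: fc fusion variants captured on anti-human IgG Fc sensor, Fab injected with association then dissociation phases, KD obtained from Langmuir one-to-one fit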
[4] = target: T4, human LAG-3 domain 1-2 Fc fusion, point …; assay: SPR, Fab over captured mutant LAG-3-Fc;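 also: fc fusion variants captured on anti-human IgG Fc sensor, Fab injected with association then dissociation phases, KD obtained from Langmuir one-to-one fit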
[5] = target: T5, human LAG-3 domain 1-2 Fc fusion, point …; assay: SPR, Fab over captured mutant LAG-3-Fc;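 also: fc fusion variants captured on anti-human IgG Fc sensor, Fab injected with association then dissociation phases, KD obtained from Langmuir one-to-one fit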
[6] = target: T6, human LAG-3 domain 1-2 Fc fusion, point …; assay: SPR, Fab over captured mutant LAG-3-Fc
[7] = target: T7, human LAG-3 domain 1-2 Fc fusion, point …; assay: SPR, Fab over captured mutant LAG-3-Fc
[8] = target: T8, human LAG-3 domain 1-2 Fc fusion, point …; assay: SPR, Fab over captured mutant LAG-3-Fc

Binder | Kd [1] [µM] | koff [1] [s⁻¹] | kon [1] [M⁻¹ s⁻¹] | KD mutant/KD wild type [2] [fold] | binding result [3] | KD mutant/KD wild type [4] [fold] | KD mutant/KD wild type [5] [fold] | KD mutant/KD wild type [6] [fold] | binding result [7] | KD mutant/KD wild type [8] [fold] | KD mutant/KD wild type [3] [fold] | KD mutant/KD wild type [7] [fold] | binding result [8]
B1 | 0.027 | 0.003 | 110000 | 0.7 | no binding (tested: 300 nM) | 0.3 | 0.6 | 0.7 | no binding (tested: 300 nM) | 1 | – | – | –
B2 | 0.0058 | 0.00065 | 110000 | 1 | – | 0.7 | 1.5 | 1.2 | – | – | 3.6 | 3.8 | no binding (tested: 300 nM)
B3 | 0.03 | 0.002 | 66000 | 0.8 | no binding (tested: 300 nM) | 0.9 | 0.9 | 0.3 | no binding (tested: 300 nM) | 3.6 | – | – | –
B4 | 0.0043 | 0.00048 | 110000 | 53.4 | – | 0.7 | 0.9 | 0.7 | – | 1.1 | 0.6 | 0.5 | –
